Experimental findings from patent US20250270343A1 (Alector, published 2025) are described below.

In assay [1] the target is T1, full-length untagged human GPNMB expressed on cells (human, UniProt Q14956 23-572).
T1 construct: also used here for GPNMB on human monocyte-derived macrophages in the functional assays; also called huGPNMB; Freestyle293-huGPNMB+
T1 sequence: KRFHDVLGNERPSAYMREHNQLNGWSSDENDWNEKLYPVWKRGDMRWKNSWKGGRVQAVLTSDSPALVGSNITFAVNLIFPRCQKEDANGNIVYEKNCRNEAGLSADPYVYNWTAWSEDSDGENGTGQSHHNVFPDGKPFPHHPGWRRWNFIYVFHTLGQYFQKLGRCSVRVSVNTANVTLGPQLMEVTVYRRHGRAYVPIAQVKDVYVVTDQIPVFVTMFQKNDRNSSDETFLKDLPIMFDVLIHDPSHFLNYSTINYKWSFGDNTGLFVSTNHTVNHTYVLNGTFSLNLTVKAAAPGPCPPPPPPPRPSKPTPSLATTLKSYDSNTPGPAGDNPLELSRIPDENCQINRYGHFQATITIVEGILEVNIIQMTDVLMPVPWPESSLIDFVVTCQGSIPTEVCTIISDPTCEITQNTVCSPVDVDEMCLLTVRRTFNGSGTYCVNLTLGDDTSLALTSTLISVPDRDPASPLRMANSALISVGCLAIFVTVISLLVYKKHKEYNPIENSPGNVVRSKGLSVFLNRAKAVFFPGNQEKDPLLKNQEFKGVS
In words: FACS titration, FS293-huGPNMB+ cells. How it is done: Cell-based binding measurements were also performed to measure the apparent affinities of anti-GPNMB antibodies of the present disclosure to cell-surface expressed GPNMB. Serial dilutions of the monoclonal anti-GPNMB antibodies were added to 100,000 Freestyle293-huGPNMB+ or B16F10 cells and allowed to achieve binding equilibrium at 4° C. After addition of fluorescently labeled secondary antibody and brief washing steps, MFI values as a function of titrated antibody concentration was recorded via FACS analysis. Curves were fit using nonlinear regression analysis with Graphpad Prism 6 software.

Assay [2] has as its target T2, soluble cynomolgus GPNMB (recombinant extracellular domain) (cynomolgus, UniProt Q14956 23-499 (human entry), limits assumed).
T2 chain: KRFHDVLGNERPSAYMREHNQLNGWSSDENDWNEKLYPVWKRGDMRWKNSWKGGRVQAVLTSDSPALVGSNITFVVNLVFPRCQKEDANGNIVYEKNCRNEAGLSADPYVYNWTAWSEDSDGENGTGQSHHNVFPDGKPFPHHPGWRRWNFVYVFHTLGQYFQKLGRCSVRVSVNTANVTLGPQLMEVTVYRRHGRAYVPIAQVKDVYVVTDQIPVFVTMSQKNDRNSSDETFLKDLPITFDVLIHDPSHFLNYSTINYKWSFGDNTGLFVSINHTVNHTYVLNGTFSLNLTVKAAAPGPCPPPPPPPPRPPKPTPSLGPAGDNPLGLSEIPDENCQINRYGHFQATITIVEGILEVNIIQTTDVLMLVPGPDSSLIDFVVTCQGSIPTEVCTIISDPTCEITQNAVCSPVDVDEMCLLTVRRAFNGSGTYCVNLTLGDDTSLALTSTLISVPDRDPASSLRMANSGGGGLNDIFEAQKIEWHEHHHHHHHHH
Nature of the assay: SPR Carterra, Ab immobilized. The method, boiled down: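 Analyte series of GPNMB extracellular domain (2.5, 7.4, 22, 67, 200, 600 nM) flowed in ascending order, no regeneration, over IgG1 antibodies EDC/NHS-immobilized on an HC200M array. HBS-EP+ plus 0.5 mg/ml BSA as running buffer, two blanks per series. Affinity estimated via high-throughput kinetic fitting.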

For assay [3], the target named is T1, full-length untagged human GPNMB …. Nature of the assay: FACS, FS293-huGPNMB+ cells. The procedure:
Recombinant anti-GPNMB antibodies of the present disclosure were examined for their ability to bind human and/or mouse GPNMB expressed on Freestyle293-huGPNMB+ or B16F10 cells, respectively. B16F10 cells are a murine melanoma cell line from a C57BL/6J mouse that endogenously express high levels of mouse GPNMB. The antibodies were also tested for their ability to bind to a human macrophage cell line (U937 cells) engineered to express human GPNMB. Cells were harvested, plated at 100,000 cells/well in a 96-well round bottom plate, and incubated in 100 μl FACS buffer (PBS containing 2% FBS, 2 mM EDTA) containing anti-GPNMB monoclonal antibodies of the present disclosure for 30 minutes on ice. Cells were then washed and incubated in 100 ul FACS buffer containing 1 μg/ml APC-conjugated anti-human IgG secondary antibody for 30 minutes in ice. Cells were washed twice in cold FACS buffer and acquired on a BD FACS Canto. Data analysis and calculation of MFI values was performed with FlowJo (TreeStar) software version 10.0.7.
Importantly, several anti-GPNMB antibodies of the present disclosure also bound to the human macrophage cell line U937 cells engineered to express human GPNMB (U937/huGPNMB+) (FIG. 2C). In FIG. 2C, the first data point in each pair corresponds to U937/huGPNMB+ cells, and the second data point in each pair corresponds to U937/huGPNMB− cells. No anti-GPNMB antibodies bound to U937 cells deficient in human GPNMB expression (U937/huGPNMB−).

Usually EC50 stands for the concentration needed to bring the measured effect to its halfway point. What is called Kd is the constant that tells how readily two partners part at equilibrium. A word on the koff: it is the first-order rate constant of dissociation. By kon is commonly meant a measure of how fast the partners come together.

B1: anti-GPNMB antibody GPN-03 (antibody, human IgG1, V domains shown)
VH: QVQLQQSGPELVKPGASVKLSCKASGYTFTNYYMYWVKQRPGQGLEWIGEINPRNGGTNFNEKFKSKATLTVDKSSSTAYMQLSSLTFEDSAVYYCTTGLAYWGQGTLVTVSA
VL: DVVMTQTPLSLPVSLGDQASISCRSSQSLVHSDGNTYLHWYLQKPGQSPKLLIYKVSTRFSGVPDRFSGSGSGTDFTLKISRVEAEDLGVYFCSQSTHVPWTFGGGTKLEIK
notes: chimeric
B1: in assay [1], the EC50 amounted to 3.38 nM. In assay [2], the Kd was found to be 38.7 nM, the koff was 0.0021 s⁻¹ and the kon came out at 54000 M⁻¹ s⁻¹. For the same molecule, the “MFI fold over background” value in assay [3] amounted to 89.2 fold.

B2: anti-GPNMB antibody GPN-08 (antibody, human IgG1, V domains shown)
VH: QVQLQQPGAELVKPGASVKLSCRASGYTFTSYWLHWVKQRPGQGLEWIGEINPSDGRTNYIEKVKTKATLTVDKSSSTAYMQLSSLTSEDSAVYYCARSGGNYAWFAYWGQGTLVTVSA
VL: DIVMTQSHKFMSTSVGDRVSITCKASQDVSPSVAWYQQRPGQSPKLLIYSASYRYTGVPDRFTGSGSGTDFTFTISSVQAEDLAVYYCQQHYSIPLTFGAGTKLELK
notes: chimeric
In turn, B2 displayed an EC50 in assay [1] of 0.87 nM. Further, in assay [2], the dissociation constant Kd stood at 32.8 nM, the koff worked out at 0.0015 s⁻¹ and the kon came to 48000 M⁻¹ s⁻¹. The “MFI fold over background” value in assay [3] amounted to 74.4 fold.

B3: anti-GPNMB antibody GPN-34 (antibody, human IgG1, V domains shown)
VH: EVKLVESGGGLVQPGRSLKLSCAASGFNFYDYWMGWVRQAPGKGLEWIGEINKDSRTINYTPFLKDRFTISRDNAQNTLYLQMSKLGSEDTAIYYCAREGRVPFDYWGQGVMVTVSS
VL: DIQMTQSPSSMSVSLGDTVTIPCRASQDVGSYVNWFQQKPGKSPRHMIYRATNLADGVPSRFSGSRSGADYSLTISSLESEDVADYHCQQYAEYPLTFGSGTKLEIK
notes: chimeric
The molecule B3 returned an EC50 in assay [1] of 0.41 nM. Further, in assay [2], the dissociation constant (Kd) was 0.4 nM, the koff is 0.00011 s⁻¹ and the kon turned out to be 250000 M⁻¹ s⁻¹. Also, the “MFI fold over background” value in assay [3] was 125 fold.

B4: anti-GPNMB antibody GPN-30 (antibody, human IgG1, V domains shown)
VH: EVQLQQSGPELVNPGASVRISCKASGYSFTGYYMNWVKQSPEKSLEWIGEINPNTGFTTYNQNFKAKATLTVDKSSSTAYIQLKSLTSEDSAVYYCTRPSPSFDYWGQGTTLTVSS
VL: DIQMTQSPSSLSASLGERGSLTCRASQEISGHLSWLQQKPDGTIKRLIYAASTLDSGVPKRFSGSRSGSDYSLTISSLESEDFADYYCLQYASYPYTFGGGTKLEIK
notes: chimeric
The molecule B4 returned an EC50 in assay [1] of 1.12 nM. For the same molecule, in assay [2], the equilibrium dissociation constant (Kd) worked out at 5.1 nM, the koff was determined as 0.00013 s⁻¹ and the kon was 26000 M⁻¹ s⁻¹. Besides, the “MFI fold over background” value in assay [3] turned out to be 34.4 fold.

B5: anti-GPNMB antibody GPN-07 (antibody, human IgG1, V domains shown)
VH: QVQLQQSGAEQVKPGASVKLSCKASGYTFTSYYMYWVKQRPGQGLEWIGEINPSNGGTYFNEKFKSKATLTVDKSSSTAYMHLSSLTSEDSAVYYCTRGGTYYAYWGQGTLVTVSA
VL: DIQMTQSPSSLSASLGERVSLTCRASQEMSGHLSWLQQKPDGTIKRLIYAASTLDSGVPKRFSGSRSGSDYSLTISSLESEDFADYYCLQYASYPYTFGGGTKLEIK
notes: chimeric
The molecule B5 gave an EC50 in assay [1] of 18.4 nM. Also, in assay [2], the Kd is 11.3 nM, the off-rate constant (koff) came to 0.00025 s⁻¹ and the kon is 22000 M⁻¹ s⁻¹. Further, the “MFI fold over background” value in assay [3] came to 66.5 fold.

B6: anti-GPNMB antibody GPN-09 (antibody, human IgG1, V domains shown)
VH: QVQLQQSGAELVKPGASVKLSCKASGYTFTSYYIYWVKQRPGQGLEWIGEINPSNGGTYFNEKFKNKATLTVDKSSSTAYMQLSSLTSEDSAVYYCTRGGNYYAYWGQGTLVTVSA
VL: DIQMTQSPSSLSASLGERVSLTCRASQEISGHLGWLQQKPDGTIKRLIYAALTLDSGVPKRFSGSRSGSDYSLTISSLESEDFADYYCLQYASYPYTFGGGTKLEIK
notes: chimeric
In assay [1], B6 returned an EC50 of 1.31 nM. Moreover, in assay [2], the Kd was 8.4 nM, the off-rate (koff) worked out at 0.00012 s⁻¹ and the kon was found to be 14000 M⁻¹ s⁻¹. Further, the “MFI fold over background” value in assay [3] turned out to be 35.1 fold.
